The source of these data is patent publication US20240287138A1 (Merck Sharp & Dohme, published 2024).

Numbered stars: 1 amine (or outer) side, 2 acyl side, 3 side chain; on linkers, the order of the positions; unused ones are H or OH. Bridge positions count the residues as written; N and C are the ends. Square brackets hold non-standard residues; d marks the D form. Primed or numbered codes have the meaning given here. 1S4RAcpc = (1S,4R)-4-Aminocyclopent-2-ene-1-carboxylic acid, O=C([C@@H]1C=C[C@H](N[*:1])C1)[*:2]; 4Pal2F = (S)-2-Amino-3-(3-fluoropyridin-4-yl)propanoic acid, O=C([C@H](Cc1ccncc1F)N[*:1])[*:2]; bhcLeu = (1R,3S)-3-aminocyclopentane-1-carboxylic acid, O=C([C@@H]1CC[C@H](N[*:1])C1)[*:2]; hSOMe = (S)-2-Amino-4-methoxybutanoic acid, COCC[C@H](N[*:1])C(=O)[*:2]; Trp(1-CH2CO) = O=C([C@H](Cc1cn(CC(=O)[*:3])c2ccccc12)N[*:1])[*:2]; Ala(2-carboxypyrimidin-5-yl) = N[C@@H](Cc1cnc(C(=O)O)nc1)C(=O)O; Trp(βS-Me,7-OMe) = COc1cccc2c([C@H](C)[C@H](N)C(=O)O)c[nH]c12; Phe(3R-OH) = O=C([C@@H](N[*:1])[C@H](O[*:3])c1ccccc1)[*:2]; Ala(1-bicyclo(1.1.1)pentyl) = N[C@@H](CC12CC(C1)C2)C(=O)O; NEtdA = N-ethyl-D-alanine, CCN([C@H](C)C(=O)[*:2])[*:1]; Phe(4-SO3H) = N[C@@H](Cc1ccc(S(=O)(=O)O)cc1)C(=O)O; Trp(7-Cl) = N[C@@H](Cc1c[nH]c2c(Cl)cccc12)C(=O)O; Phe(4-CONH2) = NC(=O)c1ccc(C[C@H](N)C(=O)O)cc1; Phe(4-COOH) = N[C@@H](Cc1ccc(C(=O)O)cc1)C(=O)O; Trp(7-aza) = N[C@@H](Cc1c[nH]c2ncccc12)C(=O)O; Pip(5R-OH) = O=C(O)[C@@H]1CC[C@@H](O)CN1; Pip(4-aza) = O=C(O)[C@@H]1CNCCN1; 4Pal = N[C@@H](Cc1ccncc1)C(=O)O; NMeE = CN[C@@H](CCC(=O)O)C(=O)O; dHyp = O=C(O)[C@H]1C[C@H](O)CN1; αMeS = C[C@](N)(CO)C(=O)O; Nle = CCCC[C@H](N)C(=O)O; Pip′ = not defined here; Sar = CNCC(=O)O

The labels stand for the following.
B1: SEQ ID NO. 190 (peptide)
peptide: cyclo([bhcLeu][Ala(1-bicyclo(1.1.1)pentyl)][4Pal][Pip(4-aza)]W[NMeE]N[4Pal][Trp(7-Cl)][αMeS][Phe(4-COOH)]Y[Sar][Trp(βS-Me,7-OMe)])
SMILES: COc1cccc2c([C@H](C)[C@@H]3NC(=O)CN(C)C(=O)[C@H](Cc4ccc(O)cc4)NC(=O)[C@H](Cc4ccc(C(=O)O)cc4)NC(=O)[C@](C)(CO)NC(=O)[C@H](Cc4c[nH]c5c(Cl)cccc45)NC(=O)[C@H](Cc4ccncc4)NC(=O)[C@H](CC(N)=O)NC(=O)[C@H](CCC(=O)O)N(C)C(=O)[C@H](Cc4c[nH]c5ccccc45)NC(=O)[C@@H]4CNCCN4C(=O)[C@H](Cc4ccncc4)NC(=O)[C@H](CC45CC(C4)C5)NC(=O)[C@@H]4CC[C@@H](C4)NC3=O)c[nH]c12
B2: SEQ ID NO. 211 (peptide)
peptide: {CH2CO}-[Nle][4Pal][Phe(3R-OH)][Trp(7-aza)][NMeE]N[4Pal][Trp(7-Cl)][αMeS][Phe(4-COOH)]Y[Sar][Trp(βS-Me,7-OMe)]C-NH2
modifications: thioether N-14
SMILES: CCCC[C@@H]1NC(=O)CSC[C@@H](C(N)=O)NC(=O)[C@H]([C@@H](C)c2c[nH]c3c(OC)cccc23)NC(=O)CN(C)C(=O)[C@H](Cc2ccc(O)cc2)NC(=O)[C@H](Cc2ccc(C(=O)O)cc2)NC(=O)[C@](C)(CO)NC(=O)[C@H](Cc2c[nH]c3c(Cl)cccc23)NC(=O)[C@H](Cc2ccncc2)NC(=O)[C@H](CC(N)=O)NC(=O)[C@H](CCC(=O)O)N(C)C(=O)[C@H](Cc2c[nH]c3ncccc23)NC(=O)[C@H]([C@H](O)c2ccccc2)NC(=O)[C@H](Cc2ccncc2)NC1=O
B3: SEQ ID NO. 191 (peptide)
peptide: cyclo([bhcLeu][Nle][4Pal][Pip(5R-OH)]W[dHyp]N[Phe(4-COOH)][Trp(7-Cl)][αMeS][Phe(4-CONH2)][Ala(2-carboxypyrimidin-5-yl)][Sar][Trp(βS-Me,7-OMe)])
SMILES: CCCC[C@@H]1NC(=O)[C@@H]2CC[C@@H](C2)NC(=O)[C@H]([C@@H](C)c2c[nH]c3c(OC)cccc23)NC(=O)CN(C)C(=O)[C@H](Cc2cnc(C(=O)O)nc2)NC(=O)[C@H](Cc2ccc(C(N)=O)cc2)NC(=O)[C@](C)(CO)NC(=O)[C@H](Cc2c[nH]c3c(Cl)cccc23)NC(=O)[C@H](Cc2ccc(C(=O)O)cc2)NC(=O)[C@H](CC(N)=O)NC(=O)[C@H]2C[C@H](O)CN2C(=O)[C@H](Cc2c[nH]c3ccccc23)NC(=O)[C@@H]2CC[C@@H](O)CN2C(=O)[C@H](Cc2ccncc2)NC1=O
B4: SEQ ID NO. 185 (peptide)
peptide: {CH2CO}-[Nle][4Pal][Pip(5R-OH)]W[dHyp]N[Phe(4-COOH)][Trp(7-Cl)][αMeS][Phe(4-CONH2)]Y[Sar][Trp(βS-Me,7-OMe)]C-NH2
modifications: thioether N-14
SMILES: CCCC[C@@H]1NC(=O)CSC[C@@H](C(N)=O)NC(=O)[C@H]([C@@H](C)c2c[nH]c3c(OC)cccc23)NC(=O)CN(C)C(=O)[C@H](Cc2ccc(O)cc2)NC(=O)[C@H](Cc2ccc(C(N)=O)cc2)NC(=O)[C@](C)(CO)NC(=O)[C@H](Cc2c[nH]c3c(Cl)cccc23)NC(=O)[C@H](Cc2ccc(C(=O)O)cc2)NC(=O)[C@H](CC(N)=O)NC(=O)[C@H]2C[C@H](O)CN2C(=O)[C@H](Cc2c[nH]c3ccccc23)NC(=O)[C@@H]2CC[C@@H](O)CN2C(=O)[C@H](Cc2ccncc2)NC1=O
B5: SEQ ID NO. 182 (peptide)
peptide: cyclo([1S4RAcpc][Nle][4Pal][Pip(4-aza)]W[NMeE]N[4Pal][Trp(7-Cl)][αMeS][Phe(4-COOH)]Y[Sar][Trp(βS-Me,7-OMe)])
SMILES: CCCC[C@@H]1NC(=O)[C@@H]2C=C[C@@H](C2)NC(=O)[C@H]([C@@H](C)c2c[nH]c3c(OC)cccc23)NC(=O)CN(C)C(=O)[C@H](Cc2ccc(O)cc2)NC(=O)[C@H](Cc2ccc(C(=O)O)cc2)NC(=O)[C@](C)(CO)NC(=O)[C@H](Cc2c[nH]c3c(Cl)cccc23)NC(=O)[C@H](Cc2ccncc2)NC(=O)[C@H](CC(N)=O)NC(=O)[C@H](CCC(=O)O)N(C)C(=O)[C@H](Cc2c[nH]c3ccccc23)NC(=O)[C@@H]2CNCCN2C(=O)[C@H](Cc2ccncc2)NC1=O
B6: SEQ ID NO. 198 (peptide)
peptide: cyclo([bhcLeu][Nle][4Pal][Pip(4-aza)]W[NMeE]N[4Pal2F][Trp(7-Cl)][αMeS][Phe(4-COOH)]Y[Sar][Trp(βS-Me,7-OMe)])
SMILES: CCCC[C@@H]1NC(=O)[C@@H]2CC[C@@H](C2)NC(=O)[C@H]([C@@H](C)c2c[nH]c3c(OC)cccc23)NC(=O)CN(C)C(=O)[C@H](Cc2ccc(O)cc2)NC(=O)[C@H](Cc2ccc(C(=O)O)cc2)NC(=O)[C@](C)(CO)NC(=O)[C@H](Cc2c[nH]c3c(Cl)cccc23)NC(=O)[C@H](Cc2ccncc2F)NC(=O)[C@H](CC(N)=O)NC(=O)[C@H](CCC(=O)O)N(C)C(=O)[C@H](Cc2c[nH]c3ccccc23)NC(=O)[C@@H]2CNCCN2C(=O)[C@H](Cc2ccncc2)NC1=O
B7: SEQ ID NO. 186 (peptide)
peptide: {CH2CO}-[Nle][4Pal][Pip(5R-OH)]W[NEtdA]N[4Pal][Trp(7-Cl)][αMeS][Phe(4-CONH2)]Y[Sar][Trp(βS-Me,7-OMe)]C-NH2
modifications: thioether N-14
SMILES: CCCC[C@@H]1NC(=O)CSC[C@@H](C(N)=O)NC(=O)[C@H]([C@@H](C)c2c[nH]c3c(OC)cccc23)NC(=O)CN(C)C(=O)[C@H](Cc2ccc(O)cc2)NC(=O)[C@H](Cc2ccc(C(N)=O)cc2)NC(=O)[C@](C)(CO)NC(=O)[C@H](Cc2c[nH]c3c(Cl)cccc23)NC(=O)[C@H](Cc2ccncc2)NC(=O)[C@H](CC(N)=O)NC(=O)[C@@H](C)N(CC)C(=O)[C@H](Cc2c[nH]c3ccccc23)NC(=O)[C@@H]2CC[C@@H](O)CN2C(=O)[C@H](Cc2ccncc2)NC1=O
B8: SEQ ID NO. 201 (peptide)
peptide: cyclo([bhcLeu][Nle][4Pal2F][Pip(4-aza)]W[NMeE]N[4Pal][Trp(7-Cl)][αMeS][Phe(4-COOH)]Y[Sar][Trp(βS-Me,7-OMe)])
SMILES: CCCC[C@@H]1NC(=O)[C@@H]2CC[C@@H](C2)NC(=O)[C@H]([C@@H](C)c2c[nH]c3c(OC)cccc23)NC(=O)CN(C)C(=O)[C@H](Cc2ccc(O)cc2)NC(=O)[C@H](Cc2ccc(C(=O)O)cc2)NC(=O)[C@](C)(CO)NC(=O)[C@H](Cc2c[nH]c3c(Cl)cccc23)NC(=O)[C@H](Cc2ccncc2)NC(=O)[C@H](CC(N)=O)NC(=O)[C@H](CCC(=O)O)N(C)C(=O)[C@H](Cc2c[nH]c3ccccc23)NC(=O)[C@@H]2CNCCN2C(=O)[C@H](Cc2ccncc2F)NC1=O
B9: SEQ ID NO. 199 (peptide)
peptide: cyclo([bhcLeu][Nle][4Pal][Pip(4-aza)]W[NMeE]N[4Pal][Trp(7-Cl)][αMeS][Phe(4-SO3H)]Y[Sar][Trp(βS-Me,7-OMe)])
SMILES: CCCC[C@@H]1NC(=O)[C@@H]2CC[C@@H](C2)NC(=O)[C@H]([C@@H](C)c2c[nH]c3c(OC)cccc23)NC(=O)CN(C)C(=O)[C@H](Cc2ccc(O)cc2)NC(=O)[C@H](Cc2ccc(S(=O)(=O)O)cc2)NC(=O)[C@](C)(CO)NC(=O)[C@H](Cc2c[nH]c3c(Cl)cccc23)NC(=O)[C@H](Cc2ccncc2)NC(=O)[C@H](CC(N)=O)NC(=O)[C@H](CCC(=O)O)N(C)C(=O)[C@H](Cc2c[nH]c3ccccc23)NC(=O)[C@@H]2CNCCN2C(=O)[C@H](Cc2ccncc2)NC1=O
B10: SEQ ID NO. 181 (peptide)
peptide: cyclo([bhcLeu][Nle][4Pal][Pip(4-aza)]W[NMeE][hSOMe][4Pal][Trp(7-Cl)][αMeS][Phe(4-COOH)]Y[Sar][Trp(βS-Me,7-OMe)])
SMILES: CCCC[C@@H]1NC(=O)[C@@H]2CC[C@@H](C2)NC(=O)[C@H]([C@@H](C)c2c[nH]c3c(OC)cccc23)NC(=O)CN(C)C(=O)[C@H](Cc2ccc(O)cc2)NC(=O)[C@H](Cc2ccc(C(=O)O)cc2)NC(=O)[C@](C)(CO)NC(=O)[C@H](Cc2c[nH]c3c(Cl)cccc23)NC(=O)[C@H](Cc2ccncc2)NC(=O)[C@H](CCOC)NC(=O)[C@H](CCC(=O)O)N(C)C(=O)[C@H](Cc2c[nH]c3ccccc23)NC(=O)[C@@H]2CNCCN2C(=O)[C@H](Cc2ccncc2)NC1=O
B11: SEQ ID NO. 197 (peptide)
peptide: cyclo([bhcLeu][Nle][4Pal][Pip(4-aza)][Trp(1-CH2CO)][NMeE]N[4Pal][Trp(7-Cl)][αMeS][Phe(4-COOH)]Y[Sar][Trp(βS-Me,7-OMe)])
SMILES: CCCC[C@@H]1NC(=O)[C@@H]2CC[C@@H](C2)NC(=O)[C@H]([C@@H](C)c2c[nH]c3c(OC)cccc23)NC(=O)CN(C)C(=O)[C@H](Cc2ccc(O)cc2)NC(=O)[C@H](Cc2ccc(C(=O)O)cc2)NC(=O)[C@](C)(CO)NC(=O)[C@H](Cc2c[nH]c3c(Cl)cccc23)NC(=O)[C@H](Cc2ccncc2)NC(=O)[C@H](CC(N)=O)NC(=O)[C@H](CCC(=O)O)N(C)C(=O)[C@H](Cc2cn(CC(=O)O)c3ccccc23)NC(=O)[C@@H]2CNCCN2C(=O)[C@H](Cc2ccncc2)NC1=O

For this assay, the target named is T1, TNFR1 on THP-1 Lucia NF-κB cells (UniProt P19438 30-455, limits assumed).
T1 sequence (looked up): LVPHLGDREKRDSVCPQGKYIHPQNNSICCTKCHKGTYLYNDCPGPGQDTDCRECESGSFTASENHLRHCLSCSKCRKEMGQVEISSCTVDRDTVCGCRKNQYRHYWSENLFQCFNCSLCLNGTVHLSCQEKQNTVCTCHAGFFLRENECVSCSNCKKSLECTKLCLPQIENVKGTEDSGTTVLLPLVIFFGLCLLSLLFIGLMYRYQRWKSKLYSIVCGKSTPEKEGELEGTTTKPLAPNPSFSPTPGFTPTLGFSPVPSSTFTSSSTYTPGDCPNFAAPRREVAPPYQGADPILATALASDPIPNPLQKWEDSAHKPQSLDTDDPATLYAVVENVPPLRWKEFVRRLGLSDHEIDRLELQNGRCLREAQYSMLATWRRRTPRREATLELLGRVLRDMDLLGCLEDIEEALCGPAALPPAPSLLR
Kind of assay: cell-based or functional assay.
In the case of B1, the “THP-1 IC50” value is 1.6 nM.

As to B2, the “THP-1 IC50” value was found to be 3.3 nM.

Turning to B3, the “THP-1 IC50” value came out at 1.6 nM.

With B4, the “THP-1 IC50” value was 0.9 nM.

As for B5, the “THP-1 IC50” value amounted to 0.9 nM.

Take B6: the “THP-1 IC50” value worked out at 0.8 nM.

Turning to B7, the “THP-1 IC50” value amounted to 1.9 nM.

For B8, the “THP-1 IC50” value came to 0.9 nM.

On to B9, for which the “THP-1 IC50” value amounted to 1 nM.

For the molecule B10, the “THP-1 IC50” value worked out at 1.2 nM.

As for {CH2CO}-[Nle][4Pal][Pip′]W[NMeE]N[4Pal][Trp(7-Cl)][αMeS][Phe(4-COOH)]Y[Sar][SbMeW7Me]C-NH2 (thioether N-14) [SEQ ID NO. 208], the “THP-1 IC50” value came to 4 nM.

In the case of B11, the “THP-1 IC50” value was 0.7 nM.
